Measurements published in patent US20220365100A1 (Janssen / Centocor, published 2022).

Legend:
[1] = molecular target: T1, recombinant IL-17 (human IL-17, interleukin 17A) (human, UniProt Q16552 24-155); test: competition in sandwich ELISA: IL-17A mixed with 10ug/ml modulator, free IL-17A detected with DuoSet DY317 (MAB317 capture, BAF317 detection)
T1 construct: Serial dilutions of recombinant IL-17 from 1 ng/ml in ELISA; also called IL-17A; CTLA8

[2] = molecular target: T1, recombinant IL-17 (human IL-17, …); test: sandwich ELISA: AF-317 coated as capture, mAb4538 as detection, IL-17A titrated

T1 sequence (Q16552 24-155 limits assumed): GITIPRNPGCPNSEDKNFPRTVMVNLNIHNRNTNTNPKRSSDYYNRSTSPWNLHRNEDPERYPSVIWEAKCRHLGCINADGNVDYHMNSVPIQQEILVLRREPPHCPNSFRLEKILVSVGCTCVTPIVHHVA

binding result [1]	binding result [2]	Binder
binds		mAb7024 (antibody, human IgG1, lambda, V domains shown, also called LM modulator of IL-17) VH: QVQLVQSGAEVKKPGSSVKVSCKASGGTFSSYAISWVRQAPGQGLEWMGSIIPWFGTTNYAQKFQGRVTITADESTSTAYMELSSLRSEDTAVYYCARDSEYYFDHWGQGTLVTVSS VL: DIQMTQSPSSVSASVGDRVTITCRASQGISNWLNWYQQKPGKAPKLLIYAASSLQSGVPSRFSGSGSGTDFTLTISSLQPEDFATYYCQQYSDDPTFGQGTKVEIKG
	binds	mAb4538 (antibody, human IgG1, lambda, V domains shown, also called detection agent; anti-IL-17 antibody from Janssen Biotech, Inc) VH: QVQLQQSGPGLVKPSQTLSLTCAISGDSVSSSSAAWGWIRQSPSRGLEWLGRISYRSKWYNDYAVSVKSRITINPDTSKNQFSLQLNSVTPEDTAVYYCAREVDSMYYSYFDIWGQGTLVTVSS VL: EIVLTQSPATLSLSPGERATLSCRASQNVWAFYLAWYQQKPGQAPRLLIYGASNRATGIPARFSGSGSGTDFTLTISSLEPEDFAVYYCQQYRSTLSLTFGQGTKVEIKG
binds		mAb732 (antibody, human IgG1, lambda, V domains shown, also called LM modulator of IL-17) VH: QVQLQQSGPGLVKPSQTLSLTCAISGDSVSSSSAAWGWIRQSPSRGLEWLGRISYRSKWYNDYAVSVKSRITINPDTSKNQFSLQLNSVTPEDTAVYYCAREVDSMYYSYFDIWGQGTLVTVSS VL: EIVLTQSPATLSLSPGERATLSCRASQNVWAFYLAWYQQKPGQAPRLLIYGASNRATGIPARFSGSGSGTDFTLTISSLEPEDFAVYYCTQYYSSPSLTFGQGTKVEIKG
